From patent US20200347144A1 (SHANGHAI HYAMAB BIOTECH, published 2020)
Changes are numbered by the printed parent chain.

T1: mouse 4-1BB protein (extracellular domain) (mouse, UniProt P20334 24-187)
T1 construct: extracellular domain; also called mouse 4-1BB-his; mouse 4-1BB-hFc protein
T1 sequence (looked up): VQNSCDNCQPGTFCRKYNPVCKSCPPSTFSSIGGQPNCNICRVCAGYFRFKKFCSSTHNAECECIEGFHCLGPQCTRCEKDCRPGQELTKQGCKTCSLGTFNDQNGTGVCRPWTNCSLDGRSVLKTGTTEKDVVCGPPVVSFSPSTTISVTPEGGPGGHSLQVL

B1: 170D7F2 (antibody, V domains shown)
VH: QVQLVQSGAEVKKPGASVKVSCKASGYTFTSYDINWVRQATGQGLEWMGWMNPNSGNTGYAQKFQGRVTMTRNTSISTAYMELSSLRSEDTAVYYCARETGPFDYWGQGTLVTVSS
VL: DIQMTQSPSSLSASVGDRVTITCRASQRINNYLNWYQQKPGKAPKLLIYGASSLQSGVPSRFSGSGSGTDFTLTISSLQPEDFATYYCQQSYSTPFTFGPGTKVDIK
B2: 172E3E3 (antibody, V domains shown)
VH: QVQLQESGPGLVKPSGTLSLTCAVSGGSISSSNWWSWVRQPPGKGLEWIGEIYHSGSTNYNPSLKSRVTISVDKSKNQLSLNLSSVTAADTAVYYCARQGGVAGTLYWYFDLWGRGTLVTVSS
VL: DIVMTQSPLSLPVTPGEPASISCRSSQGLLHSNGYNYLDWYLQKPGQSPQLLIYLGSNRASGVPDRFIGSGSGTDFTLKIRRVEAEDVGVYYCMQVLQTPWTFGQGTKVEIK
B3: 118F3A2 (antibody, V domains shown)
VH: QVQLQQWGAGLLKPSETLSLTCGVYGGSFSTNYWSWIRQSPGKGLEWIGEINHSGNTEYNPSLKSRLTISIDTSKNQFSLKLTSVTAADTAVYYCARMGYHSPSFDFWGQGVLVTVSS
VL: KIVMTQSPATLSVSPGERATLPCRVSQGIGSNLAWYQQKPGQAPRLLIYGASTRATGVPARFSGSGSGSEFTLTISSLQSEDLALYYCQQYNNWPLTFGGGTKVEIK
B4: 57B3D10 (antibody, V domains shown)
VH: QVQLQESGPGLVKPSETLSLTCTVSGGSISSYYWSWIRQPPGKGLEWIGYIYYSGSTNYNPSLKSRVTISVDTSKSQFSLKLTSVTAADTAVYYCAKDSDYYGSGSYSYWYFDLWGRGTLVTVSS
VL: EIVMTQSPATLSVSPGERATLSCRASQSVSSNLAWYQQKPGQAPRLLIYGASTRAPGIPARFSGSGSGTEFTLTISSLQSEDFAVYYCQQYNNWPLTFGGGTKVEIK
notes: also called 4-1BB fully human antibody 57B3D10
B5: 258F5A8 (antibody, V domains shown)
VH: QVQLVESGGGVVQPGRSLRLSCAASGFTFSSYGMHWVRQAPGKGLEWVAVIWYDGSNKYYADSVKGRFNISRDNSKNTLYLQMNSLRAEDTAVYYCARGPYLYSSGWYDYYYYGMDVWGQGTTVTVSS
VL: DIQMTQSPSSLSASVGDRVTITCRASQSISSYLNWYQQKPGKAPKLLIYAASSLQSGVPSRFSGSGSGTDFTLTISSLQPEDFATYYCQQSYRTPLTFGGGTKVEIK
B6: 259G10E11 (antibody, V domains shown)
VH: B5 VH with N69T
VL: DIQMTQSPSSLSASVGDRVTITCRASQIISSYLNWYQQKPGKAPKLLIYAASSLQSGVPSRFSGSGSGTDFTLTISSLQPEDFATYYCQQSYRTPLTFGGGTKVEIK
B7: 263A11E3 (antibody, V domains shown)
VH: QVQLQESGPGLVKPSETLSLTCAVSGYSISSGYYWGWIRQPPGKGLEWIGSIYHSGSTSYNPSLRSRVTISVDTSKNQFSLKLSSVTAADTAVYYCARDAGGFDYWGQGTLVTVSS
VL: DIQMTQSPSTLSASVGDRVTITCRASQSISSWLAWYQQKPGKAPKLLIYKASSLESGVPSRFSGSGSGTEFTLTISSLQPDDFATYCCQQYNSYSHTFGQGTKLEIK
B8: 119B6G5 (antibody, V domains shown)
VH: EVQLLESGGGLVQPGGSLRLSCAASGFTFSNYAMSWVRQGPGKGLEWVSTIIGSGDSTYYTDSVKGRFTISRDNSKNTLFLQMNSLRAEDTAVYYCARDKSGWYYFDYWGQGTLVTVSS
VL: DIQMTQSPSTLSASVGDRVTITCRASQSISNWLAWYQQKPGKAPKLLIYKASSLESGVPSRFSGSGSGTEFTLTISSLQPDDFATYYCQQYNDYFPITFGQGTRLEIK
B9: 182A5B3 (antibody, V domains shown)
VH: B1 VH with A61V
VL: not shown
B10: 289B6G6 (antibody, V domains shown)
VH: QVQLQESGPGLVRPSETLSLTCAVSGYSISSGYYWGWIRQPPGKGLEWIGSIFHSGNTYYNPSLKSRVIVSGDTSKNQFSLKLSSVTAADTAVYYCTRESSGFNVFDIWGQGTMVTVSS
VL: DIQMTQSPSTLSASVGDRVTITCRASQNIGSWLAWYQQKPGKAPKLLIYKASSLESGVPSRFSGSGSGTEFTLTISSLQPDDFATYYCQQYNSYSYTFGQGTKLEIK
B11: 23G3B8 (antibody, V domains shown)
VH: QVQLQESGPGLVKPSETLSLTCAVSAYSISSGYYWGWIRQPPGKGLEWIGSIFHSGSNYYNPSLKSRVTISVDPSKNQFSLKLSSVTVADTAVYYCARESSGYNCFDYWGQGTLVTVSS
VL: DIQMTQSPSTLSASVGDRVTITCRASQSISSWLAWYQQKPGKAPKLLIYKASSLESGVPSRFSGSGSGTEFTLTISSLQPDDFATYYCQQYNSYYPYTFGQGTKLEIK

target: T1, mouse 4-1BB protein (extracellular …); experiment: ELISA, coated mouse 4-1BB; Ab 2 ug/ml
Method: (§1) The purified immunogen A (4-1BB-hFc), monkey 4-1BB-his, and mouse 4-1BB-his obtained in Example 1 [for the preparation method, see step 1 of Example 1, preparation of immunogen A], of which the extracellular domain of monkey-derived 4-1BB protein (purchased from ACRO biosystems), the extracellular domain of mouse 4-1BB protein (purchased from sino biological) or other immune detection point proteins respectively were diluted with PBS to a final concentration of 1.0 μg/mL, then added with […] per well to 96-well ELISA plate. It was sealed with plastic film and incubated at 4° C. overnight. The next day, the plate was washed twice with the plate-washing solution [PBS containing 0.01% (v/v) Tween20] and blocking solution [PBS containing 0.01% (v/v) Tween 20 and 1% (v/v) BSA] was added and blocked at room temperature for 2 hours. The blocking solution was discarded and 100 μl of the purified 4-1BB antibody obtained in Example 2 was added per well. After incubated at 37° C. for 2 hours, the plate was washed 3 times with a plate-washing solution [PBS containing 0.01% (v/v) Tween20]. A secondary antibody (purchased from Sigma) labeled with HRP (horseradish peroxidase) was added, and after incubated at 37° C. for 2 hours, the plate was washed 3 times with a plate-washing solution [PBS containing 0.01% (v/v) Tween20]. 100 μl of TMB substrate was added per well. After incubated for 30 minutes at room temperature, 100 μl of stop buffer (1.0N HCl) was added per well. The A450 nm values were read using an ELISA plate reader (SpectraMax 384plus, Molecular Device).

Row | OD450 nm | Binder
1 | 0.11 OD450 nm | B1
2 | 0.12 OD450 nm | B2
3 | 0.12 OD450 nm | B3
4 | 0.1 OD450 nm | B4

target: T1, mouse 4-1BB protein (extracellular …); experiment: ELISA, coated mouse 4-1BB; Ab 0.4 ug/ml
Method: as §1

Row | OD450 nm | Binder
5 | 0.12 OD450 nm | B1
6 | 0.06 OD450 nm | B2
7 | 0.06 OD450 nm | B3
8 | 0.28 OD450 nm | B4

target: T1, mouse 4-1BB protein (extracellular …); experiment: ELISA, coated mouse 4-1BB; Ab 0.08 ug/ml
Method: as §1

Row | OD450 nm | Binder
9 | 0.1 OD450 nm | B1
10 | 0.05 OD450 nm | B2
11 | 0.12 OD450 nm | B3
12 | 0.14 OD450 nm | B4

target: T1, mouse 4-1BB protein (extracellular …); experiment: ELISA, coated mouse 4-1BB; Ab 0.016 ug/ml
Method: as §1

Row | OD450 nm | Binder
13 | 0.18 OD450 nm | B1
14 | 0.05 OD450 nm | B2
15 | 0.09 OD450 nm | B3
16 | 0.16 OD450 nm | B4

target: T2, monkey 4-1BB-his protein (monkey); experiment: ELISA, coated monkey 4-1BB-his; Ab 2 ug/ml
T2 construct: extracellular domain; Bought protein; also called extracellular domain of monkey-derived 4-1BB protein
Method: as §1

Row | OD450 nm | Binder
17 | 1.78 OD450 nm | B5
18 | 1.51 OD450 nm | B6
19 | 0.39 OD450 nm | B7
20 | 2.46 OD450 nm | B8
21 | 2.47 OD450 nm | B4

target: T1, mouse 4-1BB protein (extracellular …); experiment: ELISA, coated mouse 4-1BB; Ab 0.0006 ug/ml
Method: as §1

Row | OD450 nm | Binder
22 | 0.05 OD450 nm | B1
23 | 0.05 OD450 nm | B2
24 | 0.05 OD450 nm | B3
25 | 0.05 OD450 nm | B4

target: T1, mouse 4-1BB protein (extracellular …); experiment: ELISA, coated mouse 4-1BB; Ab 0.0032 ug/ml
Method: as §1

Row | OD450 nm | Binder
26 | 0.14 OD450 nm | B1
27 | 0.05 OD450 nm | B2
28 | 0.11 OD450 nm | B3
29 | 0.2 OD450 nm | B4

target: T2, monkey 4-1BB-his protein; experiment: ELISA, coated monkey 4-1BB-his; Ab 10 ug/ml
Method: as §1

Row | OD450 nm | Binder
30 | 1.98 OD450 nm | B5
31 | 1.83 OD450 nm | B6
32 | 0.87 OD450 nm | B7
33 | 2.48 OD450 nm | B8
34 | 2.42 OD450 nm | B4

target: T2, monkey 4-1BB-his protein; experiment: ELISA, coated monkey 4-1BB-his; Ab 0.08 ug/ml
Method: as §1

Row | OD450 nm | Binder
35 | 0.55 OD450 nm | B5
36 | 0.46 OD450 nm | B6
37 | 0.08 OD450 nm | B7
38 | 2.15 OD450 nm | B8
39 | 2.03 OD450 nm | B4

target: T2, monkey 4-1BB-his protein; experiment: ELISA, coated monkey 4-1BB-his; Ab 0.0001 ug/ml
Method: as §1

Row | OD450 nm | Binder
40 | 0.07 OD450 nm | B5
41 | 0.07 OD450 nm | B6
42 | 0.07 OD450 nm | B7
43 | 0.08 OD450 nm | B8
44 | 0.08 OD450 nm | B4

target: T2, monkey 4-1BB-his protein; experiment: ELISA, coated monkey 4-1BB-his; Ab 0.0006 ug/ml
Method: as §1

Row | OD450 nm | Binder
45 | 0.07 OD450 nm | B5
46 | 0.07 OD450 nm | B6
47 | 0.07 OD450 nm | B7
48 | 0.11 OD450 nm | B8
49 | 0.1 OD450 nm | B4

target: T2, monkey 4-1BB-his protein; experiment: ELISA, coated monkey 4-1BB-his; Ab 0.0032 ug/ml
Method: as §1

Row | OD450 nm | Binder
50 | 0.08 OD450 nm | B5
51 | 0.07 OD450 nm | B6
52 | 0.07 OD450 nm | B7
53 | 0.24 OD450 nm | B8
54 | 0.25 OD450 nm | B4

target: T3, monkey 4-1BB on CHOK1 cells (monkey); experiment: FACS on CHOK1-c4-1BB cells, Alexa 488 secondary antibody, average fluorescence intensity
T3 construct: whole, on cells; also called CHOK1-c4-1BB
Text: The pIRES plasmid carrying the full-length gene of monkey-derived […] (the preparation method is the same as the preparation method of the pCpC vector carrying the human-derived IgG Fc fragment (hFc) in “Preparation of immunogen A” of the step (1) in Example 1, in which the database accession number of the amino acid sequence of the extracellular region of monkey 4-1BB protein (Phe19-Thr239) is G7PSE7) was transfected into CHOK1 cell line to obtain CHOK1 stable transfected cell line containing monkey 4-1BB (herein referred to as CHOK1-c4-1BB stable cell line). The CHOK1-h4-1BB stable cell line and the CHOK1-c4-1BB stable cell line were expanded and cultivated to 90% confluence in T-75 cell culture flasks. The medium was exhausted, and washed twice with HBSS buffer (Hanks Balanced Salt Solution, purchased from Invitrogen), and then the cells were treated and collected with enzyme-free cell dissociation solution (Versene solution, purchased from Life Technology). The cells were washed twice with HBSS buffer, and after cell counting, the cells were diluted with HBSS buffer to 2×10⁶ cells per ml, and 1% goat serum blocking solution was added, the percentage being the mass percentage. It was incubated on ice for 30 minutes, and then washed twice with HBSS buffer by centrifugation. The collected cells were suspended in FACS buffer (HBSS containing 1% BSA, the percentage was the mass percentage) to 2×10⁶ cells/mL, and 100 μl per well was added to a 96-well FACS reaction plate. The purified 4-1BB antibody test sample obtained in Example 2 was added, 100 microliters per well and incubated on ice for 2 hours. […] It was washed three times with FACS buffer by centrifugation, and 100 μl of fixative [4% (v/v) paraformaldehyde] per well was added to suspend cells, and washed twice with FACS buffer after 10 minutes by centrifugation. The cells were suspended with 100 microliters of FACS buffer, and the results were detected and analyzed with FACS (FACS Calibur, purchased from BD).

Row | EC50 (read off the curve) | Binder
55 | ~0.4 µg/mL | B9
56 | ~0.2 µg/mL | B10
57 | ~0.2 µg/mL | B11
58 | ~0.1 µg/mL | B4

target: T2, monkey 4-1BB-his protein; experiment: ELISA: monkey 4-1BB-his coated at 1.0 µg/mL, antibody titrated, HRP secondary antibody, OD450
Method: as §1

Row | EC50 (read off the curve) | Binder
59 | ~0.03 µg/mL | B8
60 | ~0.03 µg/mL | B4

target: T1, mouse 4-1BB protein (extracellular …); experiment: ELISA: mouse 4-1BB protein coated at 1.0 µg/mL (target by Table 10; the legend paragraph 119 says monkey 4-1BB-hFc), antibody titrated, HRP secondary antibody, OD450
Method: as §1

Row | binding result | Binder
61 | no binding (tested: 10 µg/ml) | B1
62 | no binding (tested: 10 µg/ml) | B2
63 | no binding (tested: 10 µg/ml) | B3
64 | no binding (tested: 10 µg/ml) | B4
